Our source for the Km and kcat values is publication PMC2360559, “Repeated cycles of Clostridium-directed enzyme prodrug therapy result in sustained antitumour effects in vivo” (British Journal of Cancer, 2006).

The series relates to NC(=O)c1cc(N2CC2)c([N+](=O)[O-])cc1[N+](=O)[O-]. The series can be described thus: purified protein. To be noted: 100–1000 μM CB 1954, 500 μM NADPH, 37°C, 10 min, product 4HX. It counts as biochemical, Haemophilus influenzae.

The Km is the substrate concentration at which the rate is half of its maximum. As a reminder, the kcat is the number of substrate molecules converted per active site and unit of time at saturation. For the substance “NTR-H; Haemophilus influenzae NfnB; YC78_HAEIN; HinNTR (Haemophilus influenzae Rd KW20)”, the Km is 690 µM and the kcat stood at 56.2 s⁻¹.
